These results are taken from publication PMC6158172, “A bidentate Polycomb Repressive-Deubiquitinase complex is required for efficient activity on nucleosomes” (Nature Communications, 2018).

The chains are these.
B1: Calypso^43–404 (wild type), as in the Calypso^43–404–ASX^207–340 complex (enzyme, Drosophila melanogaster, UniProt Q7K5N4 43-404, looked up)
chain: ADGWLELESDPGLFTLLLKDFGCHDVQVEEVYDLQKPIESPYGFIFLFRWIEERRARRKIVETTAEIFVKDEEAISSIFFAQQVVPNSCATHALLSVLLNCNENNLQLGDTLSRLKTHTKGMSPENKGLAIGNTPELACAHNSHAMPQARRRLERTGAGVSSCRFTGEAFHFVSFVPINGQLFELDGLKPYPMNHGGWEDSEDWTDKFRRVMAERLGIATGEQDIRFNLMAVVPDRRIAITHKLKMLRTNQAIVSGTLQKLLKADEQGESGNGDSQRPDTPTTLLEPSAFTARDLQSLLKNLDTEIAINEQHLADENDRRHMFKVDASRRTHNYDKFICTFLSMLAHQGVLGELVSQHLLPS
notes: Calypso, deubiquitinase of the Drosophila PR-DUB, residues 43-404 (UCH domain, coiled-coil hairpin, ULD; lacks the C-terminal positively charged tail 405-471); Always handled together with ASX 207-340, with which it was co-expressed; two copies per 2:2 complex at high concentration; also called WT^(no tail); Calypso^(no tail); source: E. coli BL21 (DE3), co-expressed with ASX, purified …

Data set [1] deals with the molecule itself. The data set can be described thus: AUC; sedimentation velocity, c(s) analysis, 40 µM complex, 20 °C, 20 mM HEPES pH 7.8, 100 mM NaCl, 0.8 mM TCEP, 50,000 r.p.m.
Data set [2] deals with the molecule itself. Kind of data set: SEC-MALLS; Superdex 200 5/150 GL Increase, 20 mM HEPES pH 7.5, 100 mM NaCl; wild type injected at 90 and 45 μM, wild type and mutants at ~50 μM.
For data set [3], the target named is T1, Calypso(N292R)^43–404, as in the Calypso(N292R)–ASX complex (Drosophila melanogaster, UniProt Q7K5N4 43-404, N292R).
T1 construct: Calypso, Drosophila, residues 43-404, N292R; Handled together with ASX 207-340; source: E. coli BL21 (DE3), co-expressed with ASX, purified (Ni-NTA, 3C cleavage, HiTrap Q, Superdex 200); not shown: His6, N-terminal, cleaved
T1 sequence (looked up): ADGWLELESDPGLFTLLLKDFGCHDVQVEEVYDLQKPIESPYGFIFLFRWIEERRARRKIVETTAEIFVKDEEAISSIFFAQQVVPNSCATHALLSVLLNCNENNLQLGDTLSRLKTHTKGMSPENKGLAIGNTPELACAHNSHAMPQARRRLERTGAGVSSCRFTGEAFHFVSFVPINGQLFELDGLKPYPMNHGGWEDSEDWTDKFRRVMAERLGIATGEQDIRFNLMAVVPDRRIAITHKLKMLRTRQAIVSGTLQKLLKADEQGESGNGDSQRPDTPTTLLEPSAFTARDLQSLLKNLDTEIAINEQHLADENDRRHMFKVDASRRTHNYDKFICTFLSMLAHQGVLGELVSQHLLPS
Described as above. The following applies: both partners purified.

Data set [4] addresses T2, Calypso(L340A)^43–404, as in the Calypso(L340A)–ASX complex (Drosophila melanogaster, UniProt Q7K5N4 43-404, L340A).
T2 construct: Calypso, Drosophila, residues 43-404, L340A; Handled together with ASX 207-340; source: E. coli BL21 (DE3), co-expressed with ASX, purified (Ni-NTA, 3C cleavage, HiTrap Q, Superdex 200); not shown: His6, N-terminal, cleaved
T2 sequence (looked up): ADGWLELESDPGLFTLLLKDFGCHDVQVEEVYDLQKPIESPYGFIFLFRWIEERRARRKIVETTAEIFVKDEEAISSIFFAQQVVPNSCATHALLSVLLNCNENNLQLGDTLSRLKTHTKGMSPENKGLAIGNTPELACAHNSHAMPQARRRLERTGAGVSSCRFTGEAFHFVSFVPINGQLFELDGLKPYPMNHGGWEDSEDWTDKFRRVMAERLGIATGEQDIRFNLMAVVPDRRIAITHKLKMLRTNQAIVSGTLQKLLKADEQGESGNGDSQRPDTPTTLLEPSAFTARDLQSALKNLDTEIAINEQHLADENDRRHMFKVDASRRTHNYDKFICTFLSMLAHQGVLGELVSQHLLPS
The data set is described as above. The following applies: both partners purified.

Data set [5] addresses B1. The data set can be described thus: AUC; sedimentation velocity, c(s) analysis, 40 µM complex, 20 °C, 20 mM HEPES pH 7.8, 100 mM NaCl, 0.8 mM TCEP, 50,000 r.p.m. The conditions noted are these: both partners purified.

For orientation: stoichiometry N means a count of units in the complex or per binding partner. For the molecule B1, the “stoichiometry N” value in data set [1] came out at 2.

B2: Calypso(M288R)^43–404, as in the Calypso(M288R)–ASX complex (enzyme, Drosophila melanogaster, UniProt Q7K5N4 43-404, looked up)
chain: ADGWLELESDPGLFTLLLKDFGCHDVQVEEVYDLQKPIESPYGFIFLFRWIEERRARRKIVETTAEIFVKDEEAISSIFFAQQVVPNSCATHALLSVLLNCNENNLQLGDTLSRLKTHTKGMSPENKGLAIGNTPELACAHNSHAMPQARRRLERTGAGVSSCRFTGEAFHFVSFVPINGQLFELDGLKPYPMNHGGWEDSEDWTDKFRRVMAERLGIATGEQDIRFNLMAVVPDRRIAITHKLKRLRTNQAIVSGTLQKLLKADEQGESGNGDSQRPDTPTTLLEPSAFTARDLQSLLKNLDTEIAINEQHLADENDRRHMFKVDASRRTHNYDKFICTFLSMLAHQGVLGELVSQHLLPS
notes: Calypso, Drosophila, residues 43-404, M288R; Handled together with ASX 207-340; source: E. coli BL21 (DE3), co-expressed with ASX, purified (Ni-NTA, 3C cleavage, HiTrap Q, Superdex 200); not shown: His6, N-terminal, cleaved
For the molecule B2, the binding result in data set [2] is “binds”.

B3: ASX^207–340 (Deubad domain of Additional Sex Combs), as in the Calypso^43–404–ASX^207–340 complex (domain or fragment, Drosophila melanogaster, UniProt Q9V727 207-340, looked up)
chain: DGKIDLETPDSILASTNLRALLNKQTFSLLPPLYQYNLIQLLPSVDREASESEAIRLSASCLNNEFFARACLEWRERLSEGEFTPENQLKLKTEAEREKNKLDPWKLKHFEPFWGEKNSRG
notes: Additional Sex Combs (ASX), Drosophila, Deubad domain, residues 207-340 with residues 258-270 omitted; Second open reading frame of the co-expression construct; also called ASX Deubad; source: E. coli BL21 (DE3), co-expressed with His6-Calypso, purified (Ni-NTA, HiTrap Q, Superdex 200)
As to B3, the results for the “stoichiometry N” value in data set [3], in data set [4] and in data set [5] were 1 ASX per Calypso (1:1), 1 ASX per Calypso (1:1) and 1 ASX per Calypso (2:2), respectively.
